Legend:
SARS-CoV-2 spike trimer = SARS-CoV-2 spike trimer (SARS-CoV-2, UniProt P0DTC2); assay: BLI; conditions: protein: commercial; tags: His
HCoV-HKU1 spike protein = HCoV-HKU1 spike protein (HCoV-HKU1, UniProt Q5MQD0); assay: ELISA; conditions: protein: commercial
TLR4 = TLR4 (UniProt O00206 24-631); assay: ELISA; conditions: protein: commercial
ACE2 = ACE2 (UniProt Q9BYF1 18-740); assay: ELISA; conditions: protein: commercial
SARS-CoV-2 spike RBD = SARS-CoV-2 spike RBD (SARS-CoV-2, UniProt P0DTC2 319-541); assay: ELISA
PDGF-AA = PDGF-AA (UniProt P04085 87-211); assay: ELISA; conditions: protein: commercial; chain copies: 2
SARS-CoV spike protein = SARS-CoV spike protein (SARS-CoV, UniProt P59594 14-1195); assay: ELISA; conditions: protein: commercial; chain copies: 3; label: 5'-biotin (BLI, ELISA); Cy3 (flow cytometry); FAM (imaging); G-quadruplex
MERS-CoV spike protein = MERS-CoV spike protein (MERS-CoV, UniProt K9N5Q8 18-1296); assay: ELISA; conditions: protein: commercial; chain copies: 3; label: 5'-biotin (BLI, ELISA); Cy3 (flow cytometry); FAM (imaging); G-quadruplex
MERS-CoV spike protein, sequence (K9N5Q8 18-1296): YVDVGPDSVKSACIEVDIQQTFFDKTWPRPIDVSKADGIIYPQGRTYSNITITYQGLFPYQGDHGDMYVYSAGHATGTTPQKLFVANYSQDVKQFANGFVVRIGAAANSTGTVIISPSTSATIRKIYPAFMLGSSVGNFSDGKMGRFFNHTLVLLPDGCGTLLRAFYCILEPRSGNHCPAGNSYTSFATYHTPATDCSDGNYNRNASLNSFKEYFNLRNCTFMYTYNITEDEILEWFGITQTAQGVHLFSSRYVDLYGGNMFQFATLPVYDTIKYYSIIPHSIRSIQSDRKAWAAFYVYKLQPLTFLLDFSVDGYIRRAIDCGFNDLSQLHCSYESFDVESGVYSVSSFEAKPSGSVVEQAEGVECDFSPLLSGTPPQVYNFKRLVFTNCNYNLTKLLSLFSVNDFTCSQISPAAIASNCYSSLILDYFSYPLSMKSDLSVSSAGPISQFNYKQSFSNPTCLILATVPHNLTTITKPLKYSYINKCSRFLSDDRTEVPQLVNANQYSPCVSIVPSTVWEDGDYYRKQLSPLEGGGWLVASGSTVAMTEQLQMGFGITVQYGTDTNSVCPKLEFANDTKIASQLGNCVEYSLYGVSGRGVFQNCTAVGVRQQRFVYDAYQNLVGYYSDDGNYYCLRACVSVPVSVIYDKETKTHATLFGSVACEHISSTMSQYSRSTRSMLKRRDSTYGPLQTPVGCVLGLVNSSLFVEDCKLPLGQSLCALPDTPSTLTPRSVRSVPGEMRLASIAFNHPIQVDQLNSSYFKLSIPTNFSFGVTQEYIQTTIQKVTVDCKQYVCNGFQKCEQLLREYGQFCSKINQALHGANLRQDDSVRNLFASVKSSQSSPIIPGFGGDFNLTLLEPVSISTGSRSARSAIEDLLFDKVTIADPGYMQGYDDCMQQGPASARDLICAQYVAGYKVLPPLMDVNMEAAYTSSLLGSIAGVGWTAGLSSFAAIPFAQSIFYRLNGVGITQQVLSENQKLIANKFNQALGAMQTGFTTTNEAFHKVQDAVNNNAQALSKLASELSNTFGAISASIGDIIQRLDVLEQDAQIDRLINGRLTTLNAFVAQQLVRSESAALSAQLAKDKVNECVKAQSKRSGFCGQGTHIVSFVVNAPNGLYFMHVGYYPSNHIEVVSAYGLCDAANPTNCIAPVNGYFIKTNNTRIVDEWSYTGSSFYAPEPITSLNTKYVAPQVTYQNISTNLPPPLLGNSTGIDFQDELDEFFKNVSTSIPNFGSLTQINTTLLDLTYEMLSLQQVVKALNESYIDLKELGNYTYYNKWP

ACE2, sequence (Q9BYF1 18-740): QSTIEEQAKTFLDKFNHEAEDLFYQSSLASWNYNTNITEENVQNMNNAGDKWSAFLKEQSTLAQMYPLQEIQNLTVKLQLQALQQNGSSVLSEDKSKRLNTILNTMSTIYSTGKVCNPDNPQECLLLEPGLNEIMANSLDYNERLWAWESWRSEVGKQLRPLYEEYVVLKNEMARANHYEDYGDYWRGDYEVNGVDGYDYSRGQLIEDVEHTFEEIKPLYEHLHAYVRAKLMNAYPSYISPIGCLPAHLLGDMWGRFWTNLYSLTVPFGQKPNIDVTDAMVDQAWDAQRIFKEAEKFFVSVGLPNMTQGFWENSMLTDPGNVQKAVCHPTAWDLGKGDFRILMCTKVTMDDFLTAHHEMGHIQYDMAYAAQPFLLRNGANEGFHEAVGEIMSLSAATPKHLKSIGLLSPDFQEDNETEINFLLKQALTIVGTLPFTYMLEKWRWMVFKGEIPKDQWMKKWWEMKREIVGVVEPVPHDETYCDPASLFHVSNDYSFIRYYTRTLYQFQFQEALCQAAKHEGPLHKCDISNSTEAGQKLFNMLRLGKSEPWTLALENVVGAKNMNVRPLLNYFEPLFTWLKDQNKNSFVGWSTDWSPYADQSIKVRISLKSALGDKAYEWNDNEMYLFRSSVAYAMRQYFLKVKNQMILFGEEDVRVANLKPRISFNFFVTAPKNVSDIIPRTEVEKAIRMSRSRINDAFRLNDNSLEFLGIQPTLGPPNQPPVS
TLR4, sequence (O00206 24-631): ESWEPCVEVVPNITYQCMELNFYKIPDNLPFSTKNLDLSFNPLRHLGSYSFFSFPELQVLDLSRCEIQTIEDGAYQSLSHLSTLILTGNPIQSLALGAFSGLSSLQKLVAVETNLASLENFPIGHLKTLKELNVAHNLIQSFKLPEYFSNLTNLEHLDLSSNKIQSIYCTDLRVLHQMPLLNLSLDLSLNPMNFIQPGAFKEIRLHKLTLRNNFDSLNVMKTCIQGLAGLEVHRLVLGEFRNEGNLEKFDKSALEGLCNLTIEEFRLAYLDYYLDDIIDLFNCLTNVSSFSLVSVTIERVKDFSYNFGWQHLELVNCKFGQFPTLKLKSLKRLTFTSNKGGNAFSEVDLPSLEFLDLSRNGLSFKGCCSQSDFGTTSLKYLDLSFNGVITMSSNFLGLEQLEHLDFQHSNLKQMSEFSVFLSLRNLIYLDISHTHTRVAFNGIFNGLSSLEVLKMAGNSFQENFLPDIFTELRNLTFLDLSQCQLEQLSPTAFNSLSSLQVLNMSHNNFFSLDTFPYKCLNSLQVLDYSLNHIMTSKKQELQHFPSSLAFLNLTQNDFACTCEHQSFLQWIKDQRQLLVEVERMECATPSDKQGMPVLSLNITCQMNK
HCoV-HKU1 spike protein, sequence (Q5MQD0 13-1300): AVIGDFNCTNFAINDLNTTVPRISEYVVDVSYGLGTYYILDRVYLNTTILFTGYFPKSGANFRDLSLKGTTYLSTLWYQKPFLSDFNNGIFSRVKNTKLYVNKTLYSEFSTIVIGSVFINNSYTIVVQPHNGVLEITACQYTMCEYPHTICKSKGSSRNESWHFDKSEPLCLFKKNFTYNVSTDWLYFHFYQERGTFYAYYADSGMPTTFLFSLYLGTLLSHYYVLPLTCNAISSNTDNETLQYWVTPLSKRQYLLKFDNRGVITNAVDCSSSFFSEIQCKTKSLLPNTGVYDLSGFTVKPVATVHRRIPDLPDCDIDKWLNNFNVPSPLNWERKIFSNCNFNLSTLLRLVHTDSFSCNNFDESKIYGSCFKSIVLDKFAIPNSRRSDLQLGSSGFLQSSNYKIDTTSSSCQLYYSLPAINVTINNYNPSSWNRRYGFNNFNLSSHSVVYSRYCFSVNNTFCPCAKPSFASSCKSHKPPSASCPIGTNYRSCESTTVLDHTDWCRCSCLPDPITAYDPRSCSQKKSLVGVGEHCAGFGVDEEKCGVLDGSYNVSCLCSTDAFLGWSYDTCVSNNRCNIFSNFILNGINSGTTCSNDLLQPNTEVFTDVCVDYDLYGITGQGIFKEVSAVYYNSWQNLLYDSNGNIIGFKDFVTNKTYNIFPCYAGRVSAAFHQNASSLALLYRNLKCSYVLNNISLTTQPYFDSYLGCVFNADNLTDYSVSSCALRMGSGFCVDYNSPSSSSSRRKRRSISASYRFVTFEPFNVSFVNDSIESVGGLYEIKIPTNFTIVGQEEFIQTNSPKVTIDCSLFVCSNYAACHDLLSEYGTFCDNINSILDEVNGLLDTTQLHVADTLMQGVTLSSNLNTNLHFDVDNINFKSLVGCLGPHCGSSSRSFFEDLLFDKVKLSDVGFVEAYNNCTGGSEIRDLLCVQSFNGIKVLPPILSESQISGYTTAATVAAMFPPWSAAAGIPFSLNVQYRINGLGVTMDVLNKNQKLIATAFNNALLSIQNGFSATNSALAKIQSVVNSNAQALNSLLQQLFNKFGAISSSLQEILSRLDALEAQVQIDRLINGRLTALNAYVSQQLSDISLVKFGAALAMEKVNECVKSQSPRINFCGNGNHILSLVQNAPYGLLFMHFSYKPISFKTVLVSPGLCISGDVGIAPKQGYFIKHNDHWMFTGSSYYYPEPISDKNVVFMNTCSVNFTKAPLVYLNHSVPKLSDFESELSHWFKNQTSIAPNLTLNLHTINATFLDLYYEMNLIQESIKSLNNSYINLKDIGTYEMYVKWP

GGGGAGGGCGGGTGGATTGGATGCCGA (structured_DNA) [ST-6-2]: binds (SARS-CoV-2 spike trimer); no binding (HCoV-HKU1 spike protein); no binding (TLR4). GGGGAGGGCGGGTGGATTGGATGCCGA (structured_DNA) [ST-6-2]: no binding (ACE2); no binding (SARS-CoV-2 spike RBD); no binding (PDGF-AA). GGGGAGGGCGGGTGGATTGGATGCCGA (structured_DNA) [ST-6-2]: no binding (SARS-CoV spike protein); no binding (MERS-CoV spike protein).

B1: ST-6 (structured_DNA)
DNA: AGCAGCACAGAGGTCAGATGAGGGCATCAAAGGGGGGAGGGCGGGTGGATTGGATGCCGACCTATGCGTGCTACCGTGAA
B1: binds (SARS-CoV-2 spike trimer); no binding (HCoV-HKU1 spike protein); no binding (TLR4). B1: no binding (ACE2); no binding (SARS-CoV-2 spike RBD); no binding (PDGF-AA). B1: no binding (SARS-CoV spike protein); no binding (MERS-CoV spike protein).

AGGGCATCAAAGGGGGGAGGGCGGGTGGATTGGATGCCGA (structured_DNA) [ST-6-1]: binds (SARS-CoV-2 spike trimer); no binding (HCoV-HKU1 spike protein); no binding (TLR4). AGGGCATCAAAGGGGGGAGGGCGGGTGGATTGGATGCCGA (structured_DNA) [ST-6-1]: no binding (ACE2); no binding (SARS-CoV-2 spike RBD); no binding (PDGF-AA). AGGGCATCAAAGGGGGGAGGGCGGGTGGATTGGATGCCGA (structured_DNA) [ST-6-1]: no binding (SARS-CoV spike protein); no binding (MERS-CoV spike protein).
